One assay addresses Mtb ClpC1 (Mycobacterium tuberculosis, UniProt P9WPC9).
The target in assay [1] is Staphylococcus aureus ClpC wild-type (Staphylococcus aureus) (UniProt Q2G0P5). The assay can be described thus: cross-linking.
Assay [2] shares this target. Description: mass photometry.
Assay [3] has as its target Staphylococcus aureus ClpC-F436A (Staphylococcus aureus) (UniProt Q2G0P5). Description: cross-linking.
For assay [4] the target is unchanged. Description: dynamic light scattering.
In assay [5] the target is T1, Staphylococcus aureus ClpP (Staphylococcus aureus), Q2G036.
T1 chain: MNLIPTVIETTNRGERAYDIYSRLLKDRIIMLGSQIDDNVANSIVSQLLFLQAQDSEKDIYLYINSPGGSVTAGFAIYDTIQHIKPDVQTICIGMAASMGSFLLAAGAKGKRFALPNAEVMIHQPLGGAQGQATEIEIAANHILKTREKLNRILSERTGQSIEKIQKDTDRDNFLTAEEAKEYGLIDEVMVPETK
The assay can be described thus: negative stain EM. As to conditions: remark: other sources report otherwise.

What is called stoichiometry N is a count of units in the complex or per binding partner.

As to `Nc1ncnc2c1ncn2[C@@H]1O[C@H](COP(=O)(O)OP(=O)(O)OP(=O)(O)O)[C@@H](O)[C@H]1O` [ATP], at Mtb ClpC1, the “coupled PK/LDH NADH ATPase assay” value was “ATPase activities of Mtb ClpC1-WT and indicated mutants were determined”.
Take “Staphylococcus aureus ClpC wild-type (from UniProt Q2G0P5) (natural protein)”: the stoichiometry N stood at 6 in assay [1] and 2 in assay [2].
With “Staphylococcus aureus ClpC-F436A (from UniProt Q2G0P5) (natural protein)”, the stoichiometry N in assay [3] and in assay [4] was 6 throughout.

B1: Staphylococcus aureus ClpP, Q2G036 1-195 (enzyme)
chain: T1 chain
As to B1, in assay [5], the stoichiometry N worked out at 14.

The record behind these values is article PMC12583610, “Allosteric control of the bacterial ClpC/ClpP protease and its hijacking by antibacterial peptides” (The EMBO Journal, 2025).
